Positions count from the first letter of the chain named.
B1: hz28G3-1.1-DDDXd (with DAR of 7.4) (antibody, human IgG1, kappa, DAR 7.4, V domains shown)
VH: QVQLVQSGAEVKKPGASVKVSCKTSGYSFTDYLMLWVRQAPGQGLEWMGNINPYYGRTTYALKFKGRVTMTVDRSTSTVYMELSSLRSEDTAVYYCARDGYSLRNAMDYWGQGTLVTVSS
VL: DIVMTQSPDSLAVSLGERATINCKSSQSLFNSGNQKNYLAWYQQKPGQPPKLLIYGASTRESGVPDRFSGSGSGTDFTLTISSLQAEDVAVYYCQNAHSYPYTFGQGTKVEIKR
modifications: linker-payload MC-GGFG-DDDXd (compound H) conjugated to cysteines of the reduced inter-chain disulfide bonds; positions not given; linker-payload MC-GGFG-DDDXd (compound H) conjugated to cysteines of the reduced inter-chain disulfide bonds; positions not given; DAR 7.4 for the whole molecule
notes: also called anti-CLDN18.2 antibody-drug conjugate
B2: humanized antibody hz28G3-1.3 (antibody, human IgG1, kappa, V domains shown)
VH: B1 VH with P41H, G44S
VL: B1 VL
notes: Naked humanized anti-CLDN18.2 antibody, human IgG1 / kappa, expressed in CHO cells
B3: hz28G3-1.3-DDDXd (with DAR of 7.6) (antibody, human IgG1, kappa, DAR 7.6, V domains shown)
VH: B1 VH with P41H, G44S
VL: B1 VL
modifications: linker-payload MC-GGFG-DDDXd (compound H) conjugated to cysteines of the reduced inter-chain disulfide bonds; positions not given; linker-payload MC-GGFG-DDDXd (compound H) conjugated to cysteines of the reduced inter-chain disulfide bonds; positions not given; DAR 7.6 for the whole molecule
notes: as for B1
B4: humanized antibody hz28G3-1.1 (antibody, human IgG1, kappa, V domains shown)
VH: B1 VH
VL: B1 VL
notes: as for B2

Each binder was assayed against human CLDN18.2 (human) (assay: cell-based or functional assay).

Binder	Endocytosis EC50, CLDN18.2-overexpressing NCI-N87 cells [nM]	Endocytosis EC50, CLDN18.2-overexpressing NIH-3T3 cells [nM]
B1	4.41	3.69
B2	6.68	4.26
B3	3.24	1.85
B4	7.84	2.57

Biological target: human CLDN18.2 (human)
Test: cell-based or functional assay
Remark: another data set of the same source

Binder	Killing activity IC50 (CellTiter-Glo), CLDN18.2-overexpressing BxPC-3 cells [nM]	Killing activity IC50 (CellTiter-Glo), CLDN18.2-overexpressing NCI-N87 cells [nM]	Killing activity IC50 (CellTiter-Glo), CLDN18.2-overexpressing NIH-3T3 cells [nM]
B1	0.125	0.0381	0.44
B3	0.0886	0.0337	0.281

Biological target: human CLDN18.2 (human)
Test: cell-based or functional assay
Remark: another data set of the same source

Binder	CDC activity IC50, CLDN18.2-overexpressing NIH-3T3 cells with human complement [nM]
B1	~0.352
B3	~0.352

What follows are binders tested against T1, human CLDN18.2 (human) (assay: flow cytometry, CLDN18.2-overexpressing BxPC-3 cells).
T1 construct: The construct in the CLDN18.2-overexpressing BxPC-3 and NCI-N87 lines is not described; KATOIII and NUGC-4 express CLDN18.2 naturally; All are written here as this one molecule; also called Claudin 18.2; tight junction protein 18.2
T1 sequence (chain, as listed by the source limits assumed): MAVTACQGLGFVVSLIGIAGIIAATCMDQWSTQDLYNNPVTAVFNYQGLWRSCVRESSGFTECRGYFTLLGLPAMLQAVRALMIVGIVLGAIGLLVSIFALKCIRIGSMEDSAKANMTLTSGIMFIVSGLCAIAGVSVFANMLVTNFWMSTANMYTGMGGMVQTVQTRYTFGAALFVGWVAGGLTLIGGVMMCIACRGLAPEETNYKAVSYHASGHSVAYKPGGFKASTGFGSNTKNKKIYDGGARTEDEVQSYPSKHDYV

Binder	EC50 [nM]
B1	1.13
B2	3.42
B3	0.946
B4	2.63

Each binder was assayed against T1, human CLDN18.2 (assay: flow cytometry, CLDN18.2-overexpressing NCI-N87 cells).

Binder	EC50 [nM]
B1	1.17
B2	2.73
B3	1.02
B4	2.61

These binders were tested against T1, human CLDN18.2 (assay: flow cytometry, CLDN18.2-overexpressing NIH-3T3 cells).

Binder	EC50 [nM]
B1	0.896
B2	1.76
B3	0.593
B4	2.27

Reference: patent publication EP4628104A1 (Shanghai Chia Tai Tianqing Pharmaceutical Technology …, dated 2024)
